Experiment: soluble on expression in E. coli; label from the status in PepcDB or PDB records
With “MSSEDRHLGSSCGSFIKTEPSSPSSGIDALSHHSPSGSSDASGGFGIALSTHANGLDSPPMFAGAGLGGNPCRKSYEDCTSGIMEDSAIKCEYMLNAIPKRLCLVCGDIASGYHYGVASCEACKAFFKRTIQGNIEYNCPATNECEITKRRRKSCQACRFMKCLKVGMLKEGVRLDRVRGGRQKYKRRLDSENSPYLNLPISPPAKKPLTKIVSNLLGVEQDKLYAMPPNDIPEGDIKALTTLCELADRELVFLINWAKHIPGFPSLTLGDQMSLLQSAWMEILILGIVYRSLPYDDKLAYAEDYIMDEEHSRLVGLLDLYRAILQLVRRYKKLKVEKEEFMILKALALANSDSMYIENLEAVQKLQDLLHEALQDYELSQRHEEPRRAGKLLWTLPLLRQTAAKAVQHFYSVKLQGKVPMHKLFLEMLEAKV” the “soluble on expression in E. coli” value was “soluble”. For “MGSDKIHHHHHHMTEATYYFIGIKGSGMSALALVLHDLGHQVLGSDITQYTFTQKGLAAAGIKMLPFDPANLKPGYTVIAGNSFTDDHPEIKRAKELGLTIYRYHEFLGKLIEGYTSIGVAGAHGKTSTTGLLAHTLSGVAKTSYLIGDGTGKGIPDSKFFVFEADEYRRHFLAYHPDYMIMTNIDFDHPDYYTGFEDVYDAFETEANQVKKAIVAWGDDPWLRKLKAKVPVYYYGISDRDDFQARNVDRDTKGSSFDAYFHDQLIGHFFVPLFGEHSVLNALAVVAVAHMEKLDAKLIARELGNFSGVKRRFAEKDLKDMIIVDDYAHHPNEIKATLDAARQKYPDKAIIAVFQPHTFSRTQAYEPQYVQVLSQADQTFLTPIFSSAREKTGKIRSEDITAQIKGAAVIHQEDMKPLLQYHNAVVVFMGAGDIQKYEKAYETILAEE”, the “soluble on expression in E. coli” value was “not soluble”. In the case of “MIHRIKDEFVNVYIIDRGDHLVLIDTGIESTCEKILKKIEELGKPLKTVIITHYHLDHTGSLKCVKDGTGAKVVAHEEEVKAIEEKTGVRVDVPVKDGDVVEGLKVFHMPGHTRGSICLLDEESGALFVGDLMVERDGKLYEVPQQYSEDPMMNRERIKELLNIEFKAIYPAHGEPVLENAKEKVKELVESFSKGETN”, the “soluble on expression in E. coli” value is reported as “soluble”. With “MLGGNNDNPVPQVLMNDSQFRYQSNTSLNQLHLLGTMRAGCTIDPVNYFANDNLAPMMRLNSTRGRETENNNIMQRQQKLQISLNYNYNNNNTVVQDEVPKQNLVSTGLRLSYDDDERNSSVTSANGSITTPVYQSLGDNIRLDLNRQNDELDQFIKFRADQMAKGVRDIKQRHVTSFVTALEKDVSKKLQEKDHEIESMNKKNRELVDKIKQVAVEAQNWHYKAKYNESVVNALKVNLQQVMSHGNDNNAVGGGVADHHQMKEGFGDSEIDDEAASYNYLNIPGMPSTGMRCKLCNVKNVSVLLVPCRHLSLCKDCDVFTGVCPVCQSLKTSSVQVFFF” the “soluble on expression in E. coli” value was “soluble”. For “MGSDKIHHHHHHVPVRDGLQPLFVAAPLHAGGRPAAFGLKDRVMADNTTSTALLDLRGVRKTFLTPDRRERTVLEGVDFKLEEGEIVALLGKSGSGKSTLLRIMAGLIKANGGEVKYRGHLMTGPAKGISMVFQSFALFPWLTVEENVELGLEAAGIPKAEREDRANEAIDLIGLGGYESAYPKELSGGMRQRVGFARALVMRPDVLLLDEPFSALDVLTSETLREDLLELWDERKIPTKGILLVSHNIEEAVSMADRVLVFSSDPGRVRAEIRVNLPRPRDTESAAFRQIVDEVYTLMTANVRGGGVGATEQLTLGYRLPDTTPGKMAGLLETVAEAPFNGRADLPQLAEETELEDDQLFHLFEGLRVLGLARIAAGDIFVTHSGQAFVEADDAHRKELFAEALVKNIPLAAHIRRVLDERKDHRAPEDRFLQELQDYLTDDEAERVLETTITWGRYAEIFDYDYNAGVLMLPEEVVEELEAGEETRDDPGARE”, the “soluble on expression in E. coli” value was “not soluble”. With “MGSDKIHHHHHHMKNRKTPMKEQSPESRRRNFEEVALGYTLEEALEEAQRCLQCPTHPCVSGCPVEIDIPGFIRKLRDGKLEESYRILKSYNNLPAVCGRVCPQEVQCESRCVVGKMKDSEPVAIGRLERFVADWAAENLEEDVKPLAGSKKEKVAVVGSGPAGLTAAADLAKMGYHVDIFEAFHKPGGVLVYGIPEFRLPKRIVEREVSYIRKLGVNFHLNTVVGKTVKVKELLSEYDAVFIGTGAGTPKFMGIPGTNLNGVYSANEFLTRVNLMKAYLFPEYDTPIRVGKKVAVIGAGNTAMDAARSALRLGAEKVYIVYRRTEREMPARREEYHHALEEGIEFLWLTLPIRYIGDANGNVEAMECVRMELKEADGSGRPRPVPIEGSNFVLEVDMVIEAIGQGPNRVLLSEFPGLELNERGYIKADEDTGATSVKGVFAGGDIVTGAATVIKAMGAGKKAAQFIHSYLTGEWNPWQK” the “soluble on expression in E. coli” value was “not soluble”. With “MTGMRKTLKATLAEARAQVEAALKEEGFGILTEIDVAATLKAKLGLEKPPYLILGACNPNLAARALEALPEIGLLLPCNVVLREAEEGVEVLIQDPKEMFRVLPEATQRALAPVAEEARTRLSRALSRL” the “soluble on expression in E. coli” value was “soluble”. With “MGSDKIHHHHHHMRHDKFAGPAYTIQIVSNALDMLELLAMRPANPSLGRLAGSLNLTRNKAYRLLSTLCERGLVEQDPETGTYAIGVAALELAQRLIRQAPVVNHAHPIMEELARKHDEAVYMTVLRGDDVVFLDMVDCERQVKATPLIGRRFPYFTNAAGKAIKALEGADPLNLLKKRGRKNNSLDVGSLLSELHEIRHKGVAVDCGGLGDGIVSVAVAVRDYAGKVVGAITMLVPSFRAVADRLESEIIPSLQEGADLLSMKLGHGPC” the “soluble on expression in E. coli” value was “not soluble”. For “MGSDKIHHHHHHSKATGRGSGGMIGGLVASKVDPDIMSNLINNRPTVLVTGTNGKSTTTRMLAAAMRSTYTVATNEGGDNMDAGIISALLAGRNASHVVLEVDELHVPAAIERLKPDALVLLNLSRDQLDRVGEINKIERVLRDAVRSRPEMTVIANCDDVLVTSVAFDAENVIWVGAGTGWQGESATCPRTESRILHDGRHWSAEKTLLDGRTFARPTPSWEVDGDTIHSPSGDLTLDLNLPGQANRGNAAQAIAASTVFNVPVSSALPAVNSVNNVAGRYSTITVGEHKVHLLLAKNPAGWQEALSMVDRTADGLVIVVNGQVADGEDLSWLWDVRFEDFENLSVKASGERGTDLAVRLTYAEIDHELISNPVDAIAACPPGRIEVLANYTAFRDLKKALEKGTEQ”, the “soluble on expression in E. coli” value was “not soluble”. With “MAHHHHHHMAKLSKQQKKQMYIEKLSSLIQQYSKILIVHVDNVGSNQMASVRKSLRGKATILMGKNTRIRTALKKNLQAVPQIEKLLPLVKLNMGFVFCKDDLSEIRNIILDNKSPAPARLGVIAPIDVFIPPGPTGMDPSHTSFFQSLGISTKIVKGQIEIQEHVHLIKQGEKVTASSATLLQKFNMKPFSYGVDVRTVYDDGVIYDAKVLDITDEDILEKFSKGVSNVAALSRATGVITEASYPHVFVEAFKNIVALIIDSDYTFPLMENIKKMVENPEAFAAVAAPASAAKADEPKKEEAKKVEEEEEEEEDGFMGFGMFD” the “soluble on expression in E. coli” value was “not soluble”. With “GPGSMKKTVAAAPPKSPAPAKSKISVTRTGVNTTYPMPPPMPEKNYAPFFAEGCQTIAASKASMPPVQPASPLPPMHSAPPTASVVSNSIPPSSPATAPGERSPAVAARSVPTRFSPATVPRHHMNPNATEFMPGRRNGPDGGLEALPTSTADMELAKTPAGAAAAAVHAPSLPGAVRRSLQNSPIIQPSRLSVKSASEIEAISKNSALNAAAAAYVPQRTLARVVLTQPSPLALAPSEDPAKNNIEMMLDDLWCLFYLPTTLGENIKEEDYNPTLVFRVDSILTFWRVVNNIAAPSELQLSTLYLFRDGIDPKWEDPANRDGGIVKVKATAAQVDEAWELLLCRTIGDSWSPSVRETVNGVVLKVRERAYWLELWVTKNSSALQKDLAELWHPILGASFATTYLTHAMMQERSHAAAALAAEKQKKNRRRY” the “soluble on expression in E. coli” value was “soluble”. With “NFVAPQDRIATFDNDGTLWSEKPMYFQILFMLDQIKEQAASHPDWKTTKPYSLVLSGQIDKLSLEDVLTMVQKTHSGMSSDEFTSIVQAWISTAKHPATGRPYTDMVYQPMLELLDYLDSNGFKNFIVSGGGNAFMRAWATDVYNIPSERIIGTRLSTEFVNVDGSYQVKRVPGIEVNNDKAEKPQQIYQHIGKRPIASFGNSDGDLQMLQWTTSGT” the “soluble on expression in E. coli” value was “not soluble”. For “MGSDKIHHHHHHMGVIQKIKNLVTRSKYVMTTQSLTNITDHPKIAISKLEYDRITTNLKYYKSDWDSVLYLNTDGETKKRDLNHLPIARTAAKKIASLVFNEQAEIKVDDDAANEFISETLKNDRFNKNFERYLESCLALGGLAMRPYVDGDKVRVAFVQAPVFLPLQSNTQDVSSAAVVIKSVKTINGKEVYYTLIEFHEWQSSDDYVISNELYRSDDKAKVGSRVPLSEVYKDLKDEAKVTDVTRPIFTYLKTPGMNNKDINSPLGLSIFDNAKTTIDFINTTYDEFMWEVKMGQRRVAVPESLTALTVRTADGDVVPRPRFESDQNVYIRMGGRDLDSSAIQDLTTPIRADDYIKAINEGLSLFEMQIGVSAGLFSFDGKSMKTATEIVSENSDTYQMRNSIVTLVEQSLKELVISIFEIAKAYDLYQSEVPSMDNISISLDDGVFTDRDAELDYWIKVVNAGFGTREMAIQKVLNVTEEKAQEIAAEINTGIVDEINQQRTDTHLYGE”, the “soluble on expression in E. coli” value was “not soluble”. In the case of “MFTESPSRAISSYQRVGVESGVVSADPHKLILMLFEGARQALDCSLLYIQQNRIAAKGEMISKAIMIIDHGLKASLDKTAGGELANRLEQLYDYMTARLLTANLQNDAVIIEEISCLLGELHEAWASIGNQPAGKTDVQTATRNTIEDTAGTGAMA”, the “soluble on expression in E. coli” value is reported as “not soluble”. With “MVDTHKLADDVLQLLDNRIEDNYRVCVILVGSPGSGKSTIAEELCQIINEKYHTFLSEHPNVIEVNDRLKPMVNLVDSLKTLQPNKVAEMIENQGLFKDHVEDVNFQPVKYSALTSNNEECTAVVARGGTANAIRIAAVDNPVNVNKLAQDSINIAQIVPMDGFHLSRRCLDLFKDPQTAHKRRGSPSTFDSNNFLQLCKILAKTSLCKVSSHHKFYSTSSVFEKLSKTFSQTIPDIFVPGFNHALKDPTPDQYCISKFTRIVILEGLYLLYDQENWKKIYKTLADTGALLVYKIDIDYEATEERVAKRHLQSGLVTTIAEGREKFRSNDLLNGRDIDNHLIKVDNIVHIRNDHHHHHH” the “soluble on expression in E. coli” value was “soluble”. In the case of “MLTTDSLKRLWIFSFDRTLTAAGACYSKARLHRVTRQFLEELAALPGHRVAVLSSRPLDDLVSRVPIEGIYLGGSCGTEWHIPGGESMTLSGKPKDMLMETRDALLPTLREVADLPGVELEDRRWSAALHTQEANTKARQTLFARLAAVLKGWRVALYRNTTMVEIQFLPEITMAFGAQALCRFLGYRGDVVCAGSDENDATALRWALNQGGTALSLGRDPLVPGARPVVDVRSLARHVRDLAGIDEHHRTRMAGRRLCNAALEHHHHHH”, the “soluble on expression in E. coli” value is reported as “not soluble”. In the case of “MAHHHHHHMASAEAEVAADMSAMWRYAEEARAGSSALSDLTYAERQAMLRAVAKALQTNEARILEANREDMVAAKANATADPLLRRLELTPSKLATLIEGISTLADMPDPIGQILSARELDNNLLLLKQTAPIGVVLVVFESRPESLPQIASLALCSGNGLLLKGGREGEHSNAVLHDLIVSAVESSTQGRVPRGVIGLVTNRADVYSLLQLDAHIDLVVPRGSNAMVQNIQRSTRIPVLGHADGICHVYVHKDADVDAALAVAIDAKLNYPAACNAAETLLLHRDLLHSPAHGTTAAQFLVNGMTEAGVSFYAGPQAIAAGLASELAASLHMEYGDAHMTVEVVDDLAAAIAHVNRHGSHHTDTILTVDKAAAAEFQRRVESACVFHNCSTRFADGFRFGLGAEVGISTARIHARGPVGVEGLLTQKWVLKPMGSLPQATEDGAAAAAANAPYATVAEFQKGQRVFTHKDVTRKLQDEAAGLRLQA”, the “soluble on expression in E. coli” value is reported as “not soluble”.

— the DeepSol protein solubility set
